Experimental data: US20090004675A1, “Method of Identifying Compounds for Bacterial Growth Modulation” (priority 2004, published 2009)

What was measured:
[1] = molecular target: Escherichia coli β clamp (beta subunit of DNA polymerase III holoenzyme), P0A988; test: fluorescence (fluorophore-labeled β titrated with peptide); ±0.4; labeled β; conditions: chains peptide; modification not given
[2] = molecular target: Streptococcus pyogenes β clamp; test: fluorescence anisotropy; labeled peptide; conditions: chains peptide; modification not given

Binder | Kd [1] [nM] | Kd [2] [µM]
RLLNDLRGLIGSEQVELEFD [20 mer peptide corresponding to the C-terminal 20 residues of E. coli Pol III α subunit] | 2700 | –
DEMGILGNMPEDNQLSLFDDFF [Peptide corresponding to C-terminal residues of Streptococcus pyogenes Pol C] | – | 2.2
DELGSLPNLPDKAQLSIFDM [C-terminal peptide corresponding to Staphylococcus aureus Pol C] | – | 14
